The results in this text go back to the supplement of paper PMC10567573.

± gives the standard deviation.

This data set can be described thus: protein stability index of a GFP-peptide fusion (GPS, HEK-293T) (PSI 1-6); higher = more stable. The following applies: c terminus: a fixed tail appended.
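Note: 24-mer peptide tiles fused after GFP, lentivirally expressed, FACS-sorted into six equal bins by GFP/DsRed ratio, decoded by Illumina sequencing, PSI is the read-weighted mean bin number.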

SLSYTVLIVGRIAIGVSISLSSIA [SLC2A12]: the protein stability index reads like this: (treatment: DMSO) 3.02 ± 0.43; (treatment: MLN4924 1 uM, 8 h) 3.37 ± 0.23.
The like results for SLVLPWSFPLEWAPQNLTRWTFEK [TOR1AIP2] were, in that order, 2.14 ± 0.44 and 2.29 ± 0.32.
The corresponding values for SNEWKTVVGGAMFFIGFTALVIMW [COX4I1] are 3.09 ± 0.14 and 3.06 ± 0.27.
The like results for SNRGAYVKLGPALTPHIVQYQANK [PPEF2] were, in that order, 2.9 ± 0.38 and 2.99 ± 0.41.
In the case of SPEPGTPAAPTPESFTVHFLPLNS [DNAAF3], the protein stability index was 3.55 ± 0.35 (treatment: DMSO) and 3.5 ± 0.22 (treatment: MLN4924 1 uM, 8 h).
For SPPEASPGPPAAPRARRRLGSGPD [PWWP2B], the protein stability index is, setting by setting: (treatment: DMSO) 5.22 ± 0.39; (treatment: MLN4924 1 uM, 8 h) 5.47 ± 0.31.
The like results for SPVTATLSDEDDGFVDLLDGENLK [CDC25A] were, in that order, 5.4 ± 0.21 and 5.52 ± 0.13.
The corresponding values for SQKVPLRRMCFVDPVRQCAECALV [ZFYVE21] are 2.21 ± 0.2 and 2.29 ± 0.23.
On to SQSLCLNKPTMSFKDYIQERSDPV [ETS2], for which the protein stability index is, setting by setting: (treatment: DMSO) 3.54 ± 0.32; (treatment: MLN4924 1 uM, 8 h) 3.67 ± 0.53.
Regarding SRRVIAANNRILAERIAKEIQVIP [IMPA1], the protein stability index reads like this: (treatment: DMSO) 2.46 ± 0.34; (treatment: MLN4924 1 uM, 8 h) 2.69 ± 0.12.
The corresponding values for SRTQEPSLGKQKVFIIRKSLLDEL [SOAT2] are 2.04 ± 0.31 and 2.23 ± 0.34.
Take SRTSCRLSGGLGAGSCRLGSAGGL [KRT17]: the protein stability index reads like this: (treatment: DMSO) 2.33 ± 0.44; (treatment: MLN4924 1 uM, 8 h) 2.23 ± 0.36.
The like results for SRVKGSAPEIDPSSDGSNFGWETK [KMT2E] were, in that order, 4.83 ± 0.4 and 4.83 ± 0.15.
The corresponding values for SSALSQSGGGSTSAAGIEARSRAL [SPACA3] are 4.76 ± 0.41 and 4.82 ± 0.064.
The like results for SSGEDKENDGFVFKMPWKPTHPSS [CDC25B] were, in that order, 3.92 ± 0.22 and 4.16 ± 0.25.
The sequence SSPAGLSREYKLVMLGAGGVGKSA [RIT1] registered a protein stability index (treatment: DMSO) of 3.17 ± 0.62 and a protein stability index (treatment: MLN4924 1 uM, 8 h) of 2.96 ± 0.22.
The like results for SSPQGVQLDIASQSLDQEILLKVK [BCL2L13] were, in that order, 3.58 ± 0.4 and 3.83 ± 0.1.
The like results for SSRLPQPSGAGKTVVGVPSGKVSS [ZC2HC1A] were, in that order, 4.62 ± 0.13 and 4.81 ± 0.12.
For SSVQKALFEEEDHVKKLQQKVATL [CCDC3], the protein stability index by setting is: (treatment: DMSO) 4.46 ± 0.33; (treatment: MLN4924 1 uM, 8 h) 4.49 ± 0.32.
STHLTVHRRIHTGEKPYECQDCGR [ZNF8] came in with a protein stability index (treatment: DMSO) of 3.9 ± 0.32 and a protein stability index (treatment: MLN4924 1 uM, 8 h) of 4.1 ± 0.52.
Regarding STQIRALTEQQEQLRGQLQDLDSR [RASAL3], the protein stability index by setting is: (treatment: DMSO) 5.14 ± 0.27; (treatment: MLN4924 1 uM, 8 h) 5.12 ± 0.19.
The like results for SVAPMNVRRGLAGATTLGDMIYVS [KLHL12] were, in that order, 2.78 ± 0.53 and 2.96 ± 0.5.
The corresponding values for SVGGVPGGTGSGDGNKIFLCHCGK [ZBTB22] are 3.51 ± 0.19 and 3.73 ± 0.47.
The like results for SVPIVYEKYKTQIDHYVGIARDQT [RTN3] were, in that order, 2.89 ± 0.36 and 3.06 ± 0.09.
For SVSLDRCIKIWDVTSQATLLTITK [WDR88], the protein stability index turned out to be 2.43 ± 0.2 (treatment: DMSO) and 2.43 ± 0.21 (treatment: MLN4924 1 uM, 8 h).
The corresponding values for SVSNSTQTSSSSSQSETSSAVSTP [DLC1] are 5.5 ± 0.1 and 5.43 ± 0.23.
As to SWTGDGWEFKLSDPDEVARRWGKR [ETS1], the protein stability index by setting is: (treatment: DMSO) 3.73 ± 0.062; (treatment: MLN4924 1 uM, 8 h) 3.88 ± 0.25.
The like results for SWTTVTSMTTPRCYVGATVLRGRL [KLHL12] were, in that order, 2.23 ± 0.15 and 2.24 ± 0.35.
With TALPPMNEARHNFGIVEIDGMLYI [GAN], the protein stability index was 2.24 ± 0.31 (treatment: DMSO) and 2.08 ± 0.26 (treatment: MLN4924 1 uM, 8 h).
The like results for TASDSESRAESAPLPVSADDTPEV [CDS2] were, in that order, 5.48 ± 0.45 and 5.36 ± 0.38.
The sequence TASLIEDIDKKHLVLLRDGRTLIG [LSM1] showed a protein stability index (treatment: DMSO) of 2.83 ± 0.15 and a protein stability index (treatment: MLN4924 1 uM, 8 h) of 2.62 ± 0.32.
Take TCSNKKALLKFKPGAFIAGVPVQP [LPCAT4]: the protein stability index by setting is: (treatment: DMSO) 2.85 ± 0.4; (treatment: MLN4924 1 uM, 8 h) 3.03 ± 0.19.
The like results for TDSKELSMAKEVIAKELSKTYQET [ZBED1] were, in that order, 4.91 ± 0.1 and 4.82 ± 0.57.
The like results for TEPDYKSKDWVFLNYTYKRFEGLT [STK38L] were, in that order, 1.92 ± 0.19 and 2.39 ± 0.59.
The like results for TFSMPSDSHVSSCSEDWVGYQRKC [CD69] were, in that order, 3.64 ± 0.23 and 3.51 ± 0.23.
On to TFVSGGCDKKAMVWDMRSGQCVQA [GNB5], for which the protein stability index reads like this: (treatment: DMSO) 2.68 ± 0.2; (treatment: MLN4924 1 uM, 8 h) 2.89 ± 0.46.
